In publication PMC3158298:

Biological target: CC-Aβ_(1-40)E22Δ
Assay: split tetra-Cys FlAsH fluorescence

Substance: CC-Aβ_(1-40)E22Δ (peptide)
- FlAsH fluorescence intensity relative to CC-Aβ (1-40): 1.5 fold
